Reference: patent publication US20240376224A1 (University of California, published 2024)

How the values were obtained:
Test in all cases: BLI (Octet), table of in vitro binding affinities
c-CDCP1-Fc (Cut 1) = molecular target: T1, c-CDCP1-Fc (Cut 1) (human, UniProt Q9H5V8 30-365; Q9H5V8 366-667)
T1 construct: Co-transfection of NTF and CTF-Fc plasmids; not shown: Fc domain
T1 sequence 1: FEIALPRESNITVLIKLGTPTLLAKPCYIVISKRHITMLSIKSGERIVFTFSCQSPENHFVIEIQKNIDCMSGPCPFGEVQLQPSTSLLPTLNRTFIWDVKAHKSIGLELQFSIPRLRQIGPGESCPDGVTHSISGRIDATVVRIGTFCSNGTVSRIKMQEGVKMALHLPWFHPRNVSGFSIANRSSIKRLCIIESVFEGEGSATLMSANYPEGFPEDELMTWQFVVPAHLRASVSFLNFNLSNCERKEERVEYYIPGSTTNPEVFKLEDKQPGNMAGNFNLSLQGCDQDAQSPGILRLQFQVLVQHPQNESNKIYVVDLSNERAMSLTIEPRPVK
T1 sequence 2: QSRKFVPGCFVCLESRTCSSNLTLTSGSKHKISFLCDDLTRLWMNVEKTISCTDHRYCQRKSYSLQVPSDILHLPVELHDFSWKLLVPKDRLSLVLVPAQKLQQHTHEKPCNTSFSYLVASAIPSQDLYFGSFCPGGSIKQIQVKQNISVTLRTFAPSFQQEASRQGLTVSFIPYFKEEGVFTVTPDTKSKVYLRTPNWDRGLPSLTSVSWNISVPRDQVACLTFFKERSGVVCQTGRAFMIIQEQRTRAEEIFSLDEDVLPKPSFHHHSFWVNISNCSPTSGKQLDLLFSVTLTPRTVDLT
Experimental: (§1) BLI experiments were performed using an Octet RED384 instrument (ForteBio). Biotinylated proteins were immobilized on a streptavidin (SA) biosensor and His-tagged proteins were immobilized on a Ni-NTA biosensor. Different concentrations of analyte in PBS pH 7.4+0.05% Tween-20+0.2% BSA (PBSTB) were used as analyte. Affinities (KDS) were calculated from a global fit (1:1) of the data using the Octet RED384 software.

c-CDCP1-Fc (Cut 2) = molecular target: T2, c-CDCP1-Fc (Cut 2) (human, UniProt Q9H5V8 30-368; Q9H5V8 369-667)
T2 construct: Co-transfection of NTF and CTF-Fc plasmids; not shown: Fc domain
T2 sequence 1: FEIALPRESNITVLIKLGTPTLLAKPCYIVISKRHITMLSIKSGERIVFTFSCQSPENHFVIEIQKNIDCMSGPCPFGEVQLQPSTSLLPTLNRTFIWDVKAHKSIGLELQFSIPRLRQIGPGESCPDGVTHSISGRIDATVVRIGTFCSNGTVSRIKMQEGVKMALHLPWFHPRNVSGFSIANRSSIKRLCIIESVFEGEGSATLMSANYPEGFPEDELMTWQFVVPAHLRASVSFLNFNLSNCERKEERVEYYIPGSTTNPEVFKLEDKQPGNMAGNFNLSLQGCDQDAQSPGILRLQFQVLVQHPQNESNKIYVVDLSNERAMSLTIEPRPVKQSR
T2 sequence 2: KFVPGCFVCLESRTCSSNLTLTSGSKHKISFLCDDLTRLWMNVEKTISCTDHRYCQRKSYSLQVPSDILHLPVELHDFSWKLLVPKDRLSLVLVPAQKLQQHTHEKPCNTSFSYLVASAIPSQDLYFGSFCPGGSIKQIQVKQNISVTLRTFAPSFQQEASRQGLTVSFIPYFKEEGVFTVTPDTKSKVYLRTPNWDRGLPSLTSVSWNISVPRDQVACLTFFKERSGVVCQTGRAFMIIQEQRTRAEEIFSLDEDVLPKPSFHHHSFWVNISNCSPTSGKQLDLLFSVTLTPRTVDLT
Experimental: as §1

c-CDCP1-Fc (Cut 3) = molecular target: T3, c-CDCP1-Fc (Cut 3) (human, UniProt Q9H5V8 30-369; Q9H5V8 370-667)
T3 construct: Co-transfection of NTF and CTF-Fc plasmids; not shown: Fc domain
T3 sequence 1: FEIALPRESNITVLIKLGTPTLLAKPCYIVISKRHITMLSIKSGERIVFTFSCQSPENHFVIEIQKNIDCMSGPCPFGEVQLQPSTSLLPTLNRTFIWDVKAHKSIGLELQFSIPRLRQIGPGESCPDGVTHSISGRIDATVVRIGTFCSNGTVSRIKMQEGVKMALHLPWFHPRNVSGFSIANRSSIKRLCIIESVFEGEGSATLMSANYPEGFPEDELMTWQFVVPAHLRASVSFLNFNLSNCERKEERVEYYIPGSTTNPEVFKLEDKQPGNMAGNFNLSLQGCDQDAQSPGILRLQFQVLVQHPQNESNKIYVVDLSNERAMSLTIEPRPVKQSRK
T3 sequence 2: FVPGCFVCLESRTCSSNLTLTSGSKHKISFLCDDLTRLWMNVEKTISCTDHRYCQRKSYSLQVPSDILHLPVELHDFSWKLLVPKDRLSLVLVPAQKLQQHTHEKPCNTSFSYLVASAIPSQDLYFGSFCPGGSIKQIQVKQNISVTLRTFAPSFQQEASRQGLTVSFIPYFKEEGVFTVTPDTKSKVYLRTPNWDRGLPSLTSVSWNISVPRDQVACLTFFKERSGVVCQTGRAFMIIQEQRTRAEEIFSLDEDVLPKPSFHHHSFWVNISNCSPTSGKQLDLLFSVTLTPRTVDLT
Experimental: as §1

B1: CL03 IgG (antibody, V domains shown)
VH: EVQLVESGGGLVQPGGSLRLSCAASGFNFSSYSIHWVRQAPGKGLEWVASIYPYSGSTYYADSVKGRFTISADTSKNTAYLQMNSLRAEDTAVYYCARQSHSYYSHTWWVSYGMDYWGQGTLVTVSS
VL: DIQMTQSPSSLSASVGDRVTITCRASQSVSSAVAWYQQKPGKAPKLLIYSASSLYSGVPSRFSGSRSGTDFTLTISSLQPEDFATYYCQQSGQRPITFGQGTKVEIKR
notes: also called IgG CL03
Kd (c-CDCP1-Fc (Cut 1)): 0.84 nM | koff (c-CDCP1-Fc (Cut 1)): 0.000535 s⁻¹ | kon (c-CDCP1-Fc (Cut 1)): 640000 M⁻¹ s⁻¹ | Kd (c-CDCP1-Fc (Cut 2)): 0.37 nM | koff (c-CDCP1-Fc (Cut 2)): 0.000174 s⁻¹ | kon (c-CDCP1-Fc (Cut 2)): 473000 M⁻¹ s⁻¹ | Kd (c-CDCP1-Fc (Cut 3)): 0.15 nM | koff (c-CDCP1-Fc (Cut 3)): 7.43e-05 s⁻¹ | kon (c-CDCP1-Fc (Cut 3)): 492000 M⁻¹ s⁻¹
